Test results taken from the supplement of paper PMC10065799, “High-throughput profiling of sequence recognition by tyrosine kinases and SH2 domains using bacterial peptide display” (eLife, 2023).

Tests used:
Fyn = Fyn (UniProt P06241); assay: phosphorylation enrichment, bacterial display (enrichment ratio); higher = better substrate or ligand; peptides without Tyr show the background
EPHB2 = EPHB2 (UniProt P29323); assay: as above
Jak2 = Jak2 (UniProt O60674); assay: as above
c-Abl (mouse) = assay: as above
Fer (mouse) = assay: as above
MERTK = MERTK (UniProt Q12866); assay: as above
FGFR1 = FGFR1 (UniProt P11362); assay: as above
AncSZ = assay: as above
Hck = Hck (UniProt P08631); assay: as above
Fes = Fes (UniProt P07332); assay: as above
EPHB1 = EPHB1 (UniProt P54762); assay: as above
FGFR3 = FGFR3 (UniProt P22607); assay: as above
c-Src = assay: as above
SHP2-C SH2 = assay: SH2 binding enrichment of the phosphorylated peptide, bacterial display (enrichment ratio); higher = better substrate or ligand; peptides without Tyr show the background
c-Src SH2 = assay: as above
Grb2 SH2 = Grb2 SH2 (UniProt P62993); assay: as above
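For SH2 binding enrichment of the phosphorylated peptide, bacterial display in this document: peptide library displayed on the E. coli surface as eCPX fusions, selected cells deep-sequenced, score is each peptide's frequency after selection divided by its frequency in the input.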
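For phosphorylation enrichment, bacterial display in this document: 11-residue human phosphosite peptides and single-mutation variants displayed on the E. coli surface, counted by deep sequencing, each peptide's frequency after selection divided by its frequency in the unselected input library; frequency after pTyr selection over input frequency; kinase dosed for 20-30% of maximal phosphorylation in three min.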

Fyn, sequence (P06241 whole entry, looked up): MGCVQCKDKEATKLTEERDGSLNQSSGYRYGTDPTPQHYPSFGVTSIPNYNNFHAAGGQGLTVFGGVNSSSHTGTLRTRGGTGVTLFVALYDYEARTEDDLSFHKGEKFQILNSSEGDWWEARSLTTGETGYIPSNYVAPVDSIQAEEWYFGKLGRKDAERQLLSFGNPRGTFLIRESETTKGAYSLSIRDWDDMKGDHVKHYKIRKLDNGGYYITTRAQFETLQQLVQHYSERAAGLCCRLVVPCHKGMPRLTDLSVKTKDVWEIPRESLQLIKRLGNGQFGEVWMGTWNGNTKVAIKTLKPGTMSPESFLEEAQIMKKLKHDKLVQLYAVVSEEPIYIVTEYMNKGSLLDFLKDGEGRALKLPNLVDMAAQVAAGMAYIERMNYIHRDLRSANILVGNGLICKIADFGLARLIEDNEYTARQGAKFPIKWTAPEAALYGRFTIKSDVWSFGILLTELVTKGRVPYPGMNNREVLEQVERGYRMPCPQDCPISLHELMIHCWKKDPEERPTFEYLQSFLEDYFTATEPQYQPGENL
MERTK, sequence (Q12866 whole entry, looked up): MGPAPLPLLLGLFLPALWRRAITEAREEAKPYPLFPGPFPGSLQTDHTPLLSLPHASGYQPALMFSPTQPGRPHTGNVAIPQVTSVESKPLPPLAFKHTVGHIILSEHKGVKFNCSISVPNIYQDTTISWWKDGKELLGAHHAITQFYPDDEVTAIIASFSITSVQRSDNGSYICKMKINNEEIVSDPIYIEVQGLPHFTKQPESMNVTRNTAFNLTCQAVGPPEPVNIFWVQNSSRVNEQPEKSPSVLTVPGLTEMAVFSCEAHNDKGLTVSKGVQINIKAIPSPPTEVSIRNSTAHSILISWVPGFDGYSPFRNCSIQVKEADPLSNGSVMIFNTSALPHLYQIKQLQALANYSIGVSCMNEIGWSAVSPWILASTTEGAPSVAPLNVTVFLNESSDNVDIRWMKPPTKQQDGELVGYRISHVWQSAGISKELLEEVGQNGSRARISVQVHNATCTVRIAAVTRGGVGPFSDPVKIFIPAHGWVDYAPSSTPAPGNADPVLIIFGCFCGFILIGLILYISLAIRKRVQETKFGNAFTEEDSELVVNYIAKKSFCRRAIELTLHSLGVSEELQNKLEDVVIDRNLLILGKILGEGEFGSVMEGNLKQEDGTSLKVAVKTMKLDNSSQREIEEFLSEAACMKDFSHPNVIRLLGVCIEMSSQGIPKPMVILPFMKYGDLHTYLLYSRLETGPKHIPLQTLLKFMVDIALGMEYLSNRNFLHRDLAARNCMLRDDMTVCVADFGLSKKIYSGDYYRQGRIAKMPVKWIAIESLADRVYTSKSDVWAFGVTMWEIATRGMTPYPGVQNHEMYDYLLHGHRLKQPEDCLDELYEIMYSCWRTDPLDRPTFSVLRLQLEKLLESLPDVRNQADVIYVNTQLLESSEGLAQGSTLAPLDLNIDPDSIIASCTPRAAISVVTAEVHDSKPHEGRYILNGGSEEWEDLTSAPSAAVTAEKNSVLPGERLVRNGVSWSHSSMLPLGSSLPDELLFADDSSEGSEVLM
Jak2, sequence (O60674 whole entry, looked up): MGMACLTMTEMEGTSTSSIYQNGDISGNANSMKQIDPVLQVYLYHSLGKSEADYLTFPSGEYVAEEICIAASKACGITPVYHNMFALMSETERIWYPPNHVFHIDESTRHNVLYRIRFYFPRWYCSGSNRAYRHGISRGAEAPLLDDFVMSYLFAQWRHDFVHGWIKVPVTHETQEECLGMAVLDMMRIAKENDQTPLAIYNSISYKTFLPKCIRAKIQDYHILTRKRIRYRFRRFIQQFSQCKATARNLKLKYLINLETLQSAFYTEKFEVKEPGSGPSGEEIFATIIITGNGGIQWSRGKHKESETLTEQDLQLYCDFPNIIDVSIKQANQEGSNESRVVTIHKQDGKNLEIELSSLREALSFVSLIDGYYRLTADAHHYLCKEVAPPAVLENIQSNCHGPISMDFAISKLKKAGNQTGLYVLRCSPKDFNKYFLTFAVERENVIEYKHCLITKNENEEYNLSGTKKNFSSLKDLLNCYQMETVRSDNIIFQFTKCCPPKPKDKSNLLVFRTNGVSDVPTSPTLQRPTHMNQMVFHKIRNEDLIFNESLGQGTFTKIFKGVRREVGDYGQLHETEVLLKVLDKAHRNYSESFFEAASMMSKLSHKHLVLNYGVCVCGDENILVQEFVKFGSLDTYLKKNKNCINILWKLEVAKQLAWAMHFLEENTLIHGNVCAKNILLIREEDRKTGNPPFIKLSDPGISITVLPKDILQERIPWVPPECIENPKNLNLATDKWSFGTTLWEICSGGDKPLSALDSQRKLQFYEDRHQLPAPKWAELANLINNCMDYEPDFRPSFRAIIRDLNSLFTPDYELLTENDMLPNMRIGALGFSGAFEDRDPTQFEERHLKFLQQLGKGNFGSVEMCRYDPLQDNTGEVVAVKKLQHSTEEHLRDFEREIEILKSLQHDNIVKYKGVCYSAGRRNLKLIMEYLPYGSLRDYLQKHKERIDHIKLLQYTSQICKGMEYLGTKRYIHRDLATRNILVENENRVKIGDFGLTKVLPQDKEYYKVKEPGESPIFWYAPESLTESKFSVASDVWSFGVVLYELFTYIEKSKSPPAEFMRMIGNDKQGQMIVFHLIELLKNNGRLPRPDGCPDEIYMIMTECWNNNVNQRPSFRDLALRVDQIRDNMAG
Hck, sequence (P08631 whole entry, looked up): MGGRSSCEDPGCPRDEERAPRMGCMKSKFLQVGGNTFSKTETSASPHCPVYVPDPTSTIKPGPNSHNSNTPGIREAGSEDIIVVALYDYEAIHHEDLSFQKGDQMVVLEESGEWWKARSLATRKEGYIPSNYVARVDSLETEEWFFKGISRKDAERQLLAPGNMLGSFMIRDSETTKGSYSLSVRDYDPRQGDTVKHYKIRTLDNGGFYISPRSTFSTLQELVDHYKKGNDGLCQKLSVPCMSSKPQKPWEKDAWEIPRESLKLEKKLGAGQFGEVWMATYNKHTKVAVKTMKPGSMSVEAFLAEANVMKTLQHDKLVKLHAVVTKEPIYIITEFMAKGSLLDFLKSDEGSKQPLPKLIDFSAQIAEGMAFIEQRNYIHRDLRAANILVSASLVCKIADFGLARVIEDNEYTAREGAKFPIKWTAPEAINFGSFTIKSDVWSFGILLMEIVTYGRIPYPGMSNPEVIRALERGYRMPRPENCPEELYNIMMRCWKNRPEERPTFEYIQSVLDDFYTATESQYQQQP
FGFR1, sequence (P11362 whole entry, looked up): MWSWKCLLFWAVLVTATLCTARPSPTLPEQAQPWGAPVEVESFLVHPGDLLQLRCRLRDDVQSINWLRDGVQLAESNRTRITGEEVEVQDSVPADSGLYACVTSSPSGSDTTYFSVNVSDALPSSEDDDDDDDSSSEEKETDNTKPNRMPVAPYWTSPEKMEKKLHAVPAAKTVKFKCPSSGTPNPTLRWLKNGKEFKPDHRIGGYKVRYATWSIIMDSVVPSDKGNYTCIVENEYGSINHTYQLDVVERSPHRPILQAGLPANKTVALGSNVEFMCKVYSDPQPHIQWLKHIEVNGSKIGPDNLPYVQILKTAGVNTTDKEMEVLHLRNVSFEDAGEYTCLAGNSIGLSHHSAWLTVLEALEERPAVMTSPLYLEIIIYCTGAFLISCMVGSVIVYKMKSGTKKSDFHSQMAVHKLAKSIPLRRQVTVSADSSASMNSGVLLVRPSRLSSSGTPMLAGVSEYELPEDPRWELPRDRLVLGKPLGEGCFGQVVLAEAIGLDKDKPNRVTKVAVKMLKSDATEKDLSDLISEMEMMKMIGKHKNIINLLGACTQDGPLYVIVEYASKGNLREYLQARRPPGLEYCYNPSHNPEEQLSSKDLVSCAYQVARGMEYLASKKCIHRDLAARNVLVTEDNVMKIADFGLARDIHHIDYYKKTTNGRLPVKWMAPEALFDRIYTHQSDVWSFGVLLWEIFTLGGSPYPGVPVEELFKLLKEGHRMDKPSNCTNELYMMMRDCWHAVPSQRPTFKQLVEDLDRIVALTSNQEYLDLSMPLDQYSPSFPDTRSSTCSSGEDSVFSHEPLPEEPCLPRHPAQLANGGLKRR
EPHB1, sequence (P54762 whole entry, looked up): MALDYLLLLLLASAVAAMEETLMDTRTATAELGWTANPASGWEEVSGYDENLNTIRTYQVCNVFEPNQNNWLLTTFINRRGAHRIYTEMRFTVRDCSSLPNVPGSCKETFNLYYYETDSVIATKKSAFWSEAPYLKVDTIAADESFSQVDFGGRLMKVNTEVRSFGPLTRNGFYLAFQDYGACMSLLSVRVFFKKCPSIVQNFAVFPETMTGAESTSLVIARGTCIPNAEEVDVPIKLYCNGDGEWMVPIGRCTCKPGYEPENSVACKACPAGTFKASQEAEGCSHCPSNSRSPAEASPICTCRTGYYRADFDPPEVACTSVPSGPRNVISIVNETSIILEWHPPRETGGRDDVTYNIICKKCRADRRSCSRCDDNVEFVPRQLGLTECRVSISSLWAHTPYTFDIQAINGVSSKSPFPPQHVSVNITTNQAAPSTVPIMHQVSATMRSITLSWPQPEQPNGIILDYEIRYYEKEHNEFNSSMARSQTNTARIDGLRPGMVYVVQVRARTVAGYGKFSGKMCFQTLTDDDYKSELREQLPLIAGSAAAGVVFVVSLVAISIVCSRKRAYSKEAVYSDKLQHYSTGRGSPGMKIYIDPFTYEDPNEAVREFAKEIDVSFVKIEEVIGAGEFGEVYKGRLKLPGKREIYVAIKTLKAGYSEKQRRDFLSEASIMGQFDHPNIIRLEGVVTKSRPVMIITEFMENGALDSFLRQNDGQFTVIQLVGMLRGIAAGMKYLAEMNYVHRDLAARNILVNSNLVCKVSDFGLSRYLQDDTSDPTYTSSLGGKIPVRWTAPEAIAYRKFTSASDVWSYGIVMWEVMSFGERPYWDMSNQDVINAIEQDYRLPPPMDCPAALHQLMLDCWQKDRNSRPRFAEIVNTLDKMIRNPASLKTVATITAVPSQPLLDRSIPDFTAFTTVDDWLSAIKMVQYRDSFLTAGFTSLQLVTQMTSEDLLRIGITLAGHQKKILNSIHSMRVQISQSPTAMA

With FGMSSYITRED [FNDC3B_Y180_T179S_YF] the phosphorylation enrichment (Fyn) was 0.59, the phosphorylation enrichment (EPHB2) was 0.653 and the phosphorylation enrichment (Jak2) was 0.559. It also gave a phosphorylation enrichment (c-Abl (mouse)) of 0.579, a phosphorylation enrichment (Fer (mouse)) of 0.544 and a phosphorylation enrichment (MERTK) of 0.527. For the same sequence, the phosphorylation enrichment (FGFR1) was 0.556, the phosphorylation enrichment (AncSZ) was 0.84 and the phosphorylation enrichment (Hck) was 0.536. For the same sequence, the phosphorylation enrichment (Fes) was 0.891, the phosphorylation enrichment (EPHB1) was 0.594 and the phosphorylation enrichment (FGFR3) was 0.693. It also gave a phosphorylation enrichment (c-Src) of 0.442, an SH2 binding enrichment (SHP2-C SH2) of 0.937 and an SH2 binding enrichment (c-Src SH2) of 0.501. For the same sequence, the SH2 binding enrichment (Grb2 SH2) was 0.715.

For SFIGQYSGKKE [L1CAM_Y1229], the phosphorylation enrichment (Fyn) was 0.461, the phosphorylation enrichment (EPHB2) was 0.413 and the phosphorylation enrichment (Jak2) was 0.532. It also gave a phosphorylation enrichment (c-Abl (mouse)) of 0.609, a phosphorylation enrichment (Fer (mouse)) of 0.372 and a phosphorylation enrichment (MERTK) of 0.382. For the same sequence, the phosphorylation enrichment (FGFR1) was 0.417, the phosphorylation enrichment (AncSZ) was 0.735 and the phosphorylation enrichment (Hck) was 0.486. For the same sequence, the phosphorylation enrichment (Fes) was 0.714, the phosphorylation enrichment (EPHB1) was 0.452 and the phosphorylation enrichment (FGFR3) was 0.519. The phosphorylation enrichment (c-Src) was 0.374, the SH2 binding enrichment (SHP2-C SH2) was 0.622 and the SH2 binding enrichment (c-Src SH2) was 0.525. It also gave an SH2 binding enrichment (Grb2 SH2) of 0.721.

KGRGEYFAIKA [PRKCD_Y374] was tested, and the phosphorylation enrichment (Fyn) was 0.426, the phosphorylation enrichment (EPHB2) was 0.905 and the phosphorylation enrichment (Jak2) was 0.702. The phosphorylation enrichment (c-Abl (mouse)) was 0.769, the phosphorylation enrichment (Fer (mouse)) was 0.451 and the phosphorylation enrichment (MERTK) was 0.381. For the same sequence, the phosphorylation enrichment (FGFR1) was 4.32, the phosphorylation enrichment (AncSZ) was 0.702 and the phosphorylation enrichment (Hck) was 0.614. It also gave a phosphorylation enrichment (Fes) of 0.666, a phosphorylation enrichment (EPHB1) of 0.943 and a phosphorylation enrichment (FGFR3) of 2.67. It also gave a phosphorylation enrichment (c-Src) of 0.47, an SH2 binding enrichment (SHP2-C SH2) of 1.29 and an SH2 binding enrichment (c-Src SH2) of 1.22. It also gave an SH2 binding enrichment (Grb2 SH2) of 1.2.

For LKRCQYVTKKV [ALDOA_Y204_E207K], the phosphorylation enrichment (Fyn) was 0.806, the phosphorylation enrichment (EPHB2) was 0.506 and the phosphorylation enrichment (Jak2) was 0.752. The phosphorylation enrichment (c-Abl (mouse)) was 0.605, the phosphorylation enrichment (Fer (mouse)) was 0.582 and the phosphorylation enrichment (MERTK) was 0.535. It also gave a phosphorylation enrichment (FGFR1) of 0.807, a phosphorylation enrichment (AncSZ) of 1 and a phosphorylation enrichment (Hck) of 0.371. The phosphorylation enrichment (Fes) was 0.821, the phosphorylation enrichment (EPHB1) was 0.432 and the phosphorylation enrichment (FGFR3) was 0.548. The phosphorylation enrichment (c-Src) was 0.545, the SH2 binding enrichment (SHP2-C SH2) was 1.02 and the SH2 binding enrichment (c-Src SH2) was 0.788. For the same sequence, the SH2 binding enrichment (Grb2 SH2) was 0.946.

Work on QQLVAYFSKHA [SRC_Y232_YF] yielded a phosphorylation enrichment (Fyn) of 0.53, a phosphorylation enrichment (EPHB2) of 0.547 and a phosphorylation enrichment (Jak2) of 0.936. For the same sequence, the phosphorylation enrichment (c-Abl (mouse)) was 0.806, the phosphorylation enrichment (Fer (mouse)) was 0.48 and the phosphorylation enrichment (MERTK) was 0.573. The phosphorylation enrichment (FGFR1) was 0.621, the phosphorylation enrichment (AncSZ) was 0.972 and the phosphorylation enrichment (Hck) was 0.652. For the same sequence, the phosphorylation enrichment (Fes) was 1.15, the phosphorylation enrichment (EPHB1) was 0.664 and the phosphorylation enrichment (FGFR3) was 0.813. For the same sequence, the phosphorylation enrichment (c-Src) was 0.744, the SH2 binding enrichment (SHP2-C SH2) was 0.699 and the SH2 binding enrichment (c-Src SH2) was 0.644. The SH2 binding enrichment (Grb2 SH2) was 1.57.

SSQVLYKLEQS [THADA_Y701] gave a phosphorylation enrichment (Fyn) of 0.48, a phosphorylation enrichment (EPHB2) of 0.592 and a phosphorylation enrichment (Jak2) of 0.731. For the same sequence, the phosphorylation enrichment (c-Abl (mouse)) was 0.496, the phosphorylation enrichment (Fer (mouse)) was 0.431 and the phosphorylation enrichment (MERTK) was 0.442. For the same sequence, the phosphorylation enrichment (FGFR1) was 0.434, the phosphorylation enrichment (AncSZ) was 0.628 and the phosphorylation enrichment (Hck) was 0.487. It also gave a phosphorylation enrichment (Fes) of 0.726, a phosphorylation enrichment (EPHB1) of 0.476 and a phosphorylation enrichment (FGFR3) of 0.507. It also gave a phosphorylation enrichment (c-Src) of 0.706, an SH2 binding enrichment (SHP2-C SH2) of 0.678 and an SH2 binding enrichment (c-Src SH2) of 0.527. For the same sequence, the SH2 binding enrichment (Grb2 SH2) was 0.893.

For TEQDPYNNIVC [MMUT_Y364_R369C], the phosphorylation enrichment (Fyn) was 0.555, the phosphorylation enrichment (EPHB2) was 0.572 and the phosphorylation enrichment (Jak2) was 0.952. It also gave a phosphorylation enrichment (c-Abl (mouse)) of 0.784, a phosphorylation enrichment (Fer (mouse)) of 0.627 and a phosphorylation enrichment (MERTK) of 0.528. It also gave a phosphorylation enrichment (FGFR1) of 0.659, a phosphorylation enrichment (AncSZ) of 1.14 and a phosphorylation enrichment (Hck) of 0.566. For the same sequence, the phosphorylation enrichment (Fes) was 1.22, the phosphorylation enrichment (EPHB1) was 0.555 and the phosphorylation enrichment (FGFR3) was 0.666. It also gave a phosphorylation enrichment (c-Src) of 0.642, an SH2 binding enrichment (SHP2-C SH2) of 0.814 and an SH2 binding enrichment (c-Src SH2) of 1.52. It also gave an SH2 binding enrichment (Grb2 SH2) of 0.86.

ARGMEYLASKN [FGFR1_Y613_K618N] showed a phosphorylation enrichment (Fyn) of 0.327, a phosphorylation enrichment (EPHB2) of 0.32 and a phosphorylation enrichment (Jak2) of 0.463. It also gave a phosphorylation enrichment (c-Abl (mouse)) of 0.385, a phosphorylation enrichment (Fer (mouse)) of 0.271 and a phosphorylation enrichment (MERTK) of 0.355. The phosphorylation enrichment (FGFR1) was 0.407, the phosphorylation enrichment (AncSZ) was 0.452 and the phosphorylation enrichment (Hck) was 0.337. It also gave a phosphorylation enrichment (Fes) of 0.511, a phosphorylation enrichment (EPHB1) of 0.285 and a phosphorylation enrichment (FGFR3) of 0.447. For the same sequence, the phosphorylation enrichment (c-Src) was 0.394, the SH2 binding enrichment (SHP2-C SH2) was 0.557 and the SH2 binding enrichment (c-Src SH2) was 0.524. It also gave an SH2 binding enrichment (Grb2 SH2) of 1.03.

In the case of DILASYLDKVR [KRT12_Y139_R135I], the phosphorylation enrichment (Fyn) is reported as 0.457, the phosphorylation enrichment (EPHB2) is reported as 0.437 and the phosphorylation enrichment (Jak2) is reported as 0.505. For the same sequence, the phosphorylation enrichment (c-Abl (mouse)) was 0.37, the phosphorylation enrichment (Fer (mouse)) was 0.284 and the phosphorylation enrichment (MERTK) was 0.364. For the same sequence, the phosphorylation enrichment (FGFR1) was 0.407, the phosphorylation enrichment (AncSZ) was 0.54 and the phosphorylation enrichment (Hck) was 0.403. The phosphorylation enrichment (Fes) was 0.96, the phosphorylation enrichment (EPHB1) was 0.364 and the phosphorylation enrichment (FGFR3) was 0.594. It also gave a phosphorylation enrichment (c-Src) of 0.375, an SH2 binding enrichment (SHP2-C SH2) of 0.824 and an SH2 binding enrichment (c-Src SH2) of 0.656. For the same sequence, the SH2 binding enrichment (Grb2 SH2) was 0.952.
